Assay: label from the status in PepcDB records

Row | Sequence | protein production
1 | MPTTKQLKDTELPLNFFEHSSLETIELFIQHLTEAMILVNANGFIRSCNQRSAELLDCPQVSLKGQDWRNFLTEHHQARYDNLLSHDVQLGTNCGQPVQHPAQETTLICASGKAKDVELSISYIPGHEPMFVMVMHDLTHHKAENQKLRKLAATDSLTQLANRRYFDEMLQQHWEECTAKLRPISVVIIDVDYFKVFNDQFGHIQGDECLRKIAKVIAGIVPTEIGLAARYGGEEFALILPNHNAKMALTIAQKIQQGINNIRFTDQGLRDYVSVSASQGIACEVNGQFRTSLAMVCAADTALYRAKADGRDRINTSL | failed
2 | MSLGIIRSILDTDLYKFTTGYAYAKLFPRAYGEFRFIDRNRQGFTEEFAELVRGEIRAMAALSLTRDEKEFLQRELPYLPPIYIDFLDGFRFDPEEVTVSIDAQGHLDIRAQGLLYRVTLWETPILAVISELYYRFIGAKPDWKQVEEVTRSKGELMREHRTTFSIFGMRRRFSLEVEDRVTDILKQYAGESLFGTSNVHLAHKHGLRVSGTHPHEWIQFHGAIYGYKMANYVAMEDWINVYDGDLGTVLTDTYTTDVFMRNFSKKHAMLFTSLRHDSGDPEIFIEKAVRRYEELRVDPKIKYIIFSDSLTPQRAIEIQKLCAGRIKASFGIGTNLTNDVGGGVEPLNIVMKLWKCKMTAKDDWHYCVKLSDVDGKHTGEPEEILLAMNTLGIKPKEGHHHHHH | not failed
3 | MGHHHHHHSHRGAGRVSRWPPPHWLEAWRVSPRPLSPLSPATFGRGFIAVAVIPGLWARGRGCSSDRLPRPAGPARRQFQAASLLTRGWGRAWPWKQILKELDECYERFSRETDGAQK | failed
4 | MAPARLRADTGSGEPIIHSTLLYILLAATISGVGSIFGAALLSLTVASRVVERMVSFSVGVLLATALLHSLPEAFESGADTRALFGTLLAGLLGFFLLEKISLLRHSHHHEGDGHHHHHGHDREEAGRSGLTILVGDTFHNFADGIVIAAAFLANPHIGIVTALAIAAHEIPQEVGDFIVLLNAGFSKARAFAFNLLSSLAAIIGGLVGYFLLDQLTGWIPYVLVIASSSFLYIAVSDLMPQMQRKPRLKESAVQVVLVAAGIAAIVFITNGVHEQHGHRHSRTAAGVTSN | failed
5 | MNNKDLWIKEEIIWSEHKCIRFAAGGYEALIIPDVGGNVVELKDTNKGVTILRTPKKDLKFEDFKNRPQVYGLPVLFPPNRIDDGTFKLGDKTYKFPINEAKNNNYIHGFIKNSKWTVHKKKIDQDKALVEVVFDFTKENEAYKYFSHEFQFKLSYELSSKGLKQTTSVVNLSSEEMPLSVGYHSAFNVPFIEGSEDSNCRVKISIDKFWKQDSRNLPTGESFAPTGEQKEYLENGVAVASHPIESLFSLKDIDVNGKTFRGACIEDASKNTRVVYEMSSEYKYLVIWNDMGDKKYACIEPQTSIINSPNVKLDRSVSGFKTLKPNESWSGVCKLYIENM | not failed
6 | MSDSTLTGNAPVRRNITRKNVIIGLLLLLFVLIALWCHGRPGSELGLLEFTPLVALAILSLIGVDIVLAVISSIIIAMIMTSTGLPEMGTMLAKSTGSFIATVGLIIMLGAGVGEVATRTGAAVELVKFVVHRIGLSSQTRVKFGIVASSILICGSLGTMAGGNAIIVAVIIPVAAAVRLTPPTVAALMMTAGSVGLFTGPFTPSTVTILSLGGLSYPDYLLYVGLPMSAVTLLAGWVMAGRIQKMTEGKLRYDVDLAEKPQEDLSAAQQRRRKLSALAFAATIIVMAIVGVVIKAGFSFAIIVMLLVALMTGLVGGLRPTQILQALYHGCGRLVWMFILYWLYNPILELMDGLHAYQGLLEYTQPLLEGISPAWLCFSIFAFNIIGHVPGAAVAQMTFTHKIFGPMLMAAGVPPQGTTAVLLASSQVDWFGPFPSSDMFGQMGLAQSTHLKYMLYNGWAIVVANIILFALLFQILV | failed
7 | IEAENHKVTDKIKNAQPFLVDVVPAKSVIPELNDDAQKTLLHAGPPIQWSEMTGPMKGACIGAALFERWADNEEDALKIFEAGEVRFIPCHHVKAVGPMGGITSGNMPVFVVENRLEGNEAYCILNEGIGKVLRFGAYSQEVVDRLDWIKDVLGPTIAKALKLSEEGLNLNVLIARSITMGDEFHQRNIAASLNFLKELSPLIIKTDIPEDQKYEVIKFLADTDQFFLNVMMATGKAIVDGARKDTNGTIVTTMTRNGVNFGVRIAETGDQWHTAPVNTPKGLYFTGFSEEDGNPDVGDSAITETVGVGAMAMVAAPGVTRFVGAGGFEDALATSNEMAKICEGNNPTFSIPTWDFQGTCLGIDIRKVVELGITPIINTGIAHKNAGVGQIGAGTVRAPLGCFEKALEAYAEKLGITVE | failed
8 | MSGARNVEQWQDFIGSCLDFRPADGVFRIARDMFTEPELFDLEMELIFEKNWIYACHESELPNNHDFITMRAGRQPMIITRDGEGRLNALVNACQHRGTTLTRVGKGNQSTFTCPFHAWCYKSDGRLVKVKAPGEYDEGFDKATRGLKKARIESYKGFVFISLDVAADNSLEDFLGDARIFFDMMVAQSPDGELEVLPGKSAYTYDGNWKLQNENGLDGYHVSTVHYNYVATVQHRQQVNADSGAGSSATLDYSKLGAGDASTDDGWFAFENGHSVLFSEMPNPAVRSGYASIMPRLVAEHGQAKAEWMMHRLRNLNIYPSLFFLDQISSQLRIIRPIAWNKTEIISQCIGVKGESDADRENRIRQFEDFFNVSGMGTPDDLVEFREAQRGFQGRLERWSDISRGRQHWVSGPTANSENLGIQPAMTGTEITHEGLYVNQHRNWQKFLLDGLQRRPLKLREV | failed
9 | MSVLSALQYYFFYPSFFLTVIFPGLIFTLIFLLVTIWFERKAAAIVQLRYGPYYASKRLGGILQLFADAIKFVFSEIIIPNGVNQTLYAISPVLVLIFAFLPMALIPISTIPTQGSILSVYHGIFYDTQIHQGILVPYFIEYNLIGIIALESLYPILVIFLAWNTNNRFAIVGSIREAYLSVSYDVLIIISTLALGLEYHTLDVAKIVTSGIPGFIANPIAAFVFLVAMLIGSSRFPFEIVEAETELVIGPYTEYSGFLFVLTMAGSYVANLVYAILFVDLFLGGWLPFTGFVGAIFTVFKAAIVVFFAVFLRAVYGRYRIDQALRGSWKYFFPLALASLLLGVVVGYLWIR | failed
10 | MAPPTPHLAVRGSDGTLLLHGPPNCQESSAFQRDDRQGRYMTFSNDGTLFAWCNGSQVTVLKVPSGDLVKSFDLPKTTALEFSPLNKVLATWQQYTKTQDNPQGEANLQLWDLQTGACMKAFYQKKMTGWCPSWADDESISVRNVNNELHFFENNNFETIANKLHLQKVSEFALSPGSQPSKVAVYVPGSKGAPSFVRLYQYPNFGGPTCALANKSFFKADKVNMLWNKKATAVLVTASTEVDKTGASYYGEQTLHYVATNGESAVVQLPKNGPIYDVSWSPNSTEFCVVYGFMPAKATVFNNKCESVFDFGTGPRNAAFYSPQGHILVLAGFGNLRGQMEVWDVKKYKQVSKPQAEDTTHFSWCPDGEHIVTATCSPRLRASNGYKIWHYTGTVLYKHETPSGKELWEVLWQPFPAGVFPERAVKYQALPSELGSTEAKPAQAYRPPALRNKPQTASSKLHEEEPPQNMKPGAAGEKQPSKAALKNQKRREAKKAAKQENKPDEAPPPAADPAPVSHVTSSCGDPETDKKIKNLKKKLKAIDELKEQQAAGKVMQKNQLEKMQKEAQLLKELEDLELGL | not failed
11 | MQTDEKLHVLLADDDPIMLARLSRQLEADGHHVASRRDGETALAYALEHQPEMVITDWHMKPMNGLELCRALRESALGGNVYIVMLTASESEDALVEAFGAGIDDYVIKPPSVRVLKARIRAGQRIITLHKKLARERKEIERYSSELAAANRRLELMAHTLEHHHHHH | failed
12 | MSEEKNLVINANDSLGEIVIAPEVIEVIIGIAASKVEGVYGMRGTFANNVNELLGRAAHGKGVYLRTEEEGLKVDIYCYLNYGVSVPKVALEMQDRVKQQVLFMTDIDLVEVNIHVVAVVPEKIPQPDLNELFPEDEDGEENELEHHHHHH | not failed
13 | NGMDEEQRQKRRRIEVALIEYRETLEEQGMKNPEEIERKVEINRKRLEVDYGLS | not failed
14 | MISSYGDVDMELRDEDLILEEVRDYLTAYLRNIHQEDIILDNERVVVDLNQLYNYGLMEFVEFLINNPQKGIDFIKECYNDAYYTLRNEYPTNVIIAVKNLPKIFKTTRKGKIFTIEDIRSKTLGKLVEFEGIIVMASKIRPMLKKAYYICPKCGREVVREIDILNTDSEKAVCECGAELNLIEHKSIYTDFQEIKVQQPLDLMENPEEPPKYITVFLENSPGIYAGRVKITGIPIKVKKSKKLPIYDIHVKALHCEVLDGEVKIKLTNSDIENIKKIAKRKDVVNILADRLIPEIKGHSAIKKAVLLQQIKGVKKPGKRADIHILLITDPGIGKTVILRKIAEIPGNLYGSVTTATGVGLTAAVVREKTEIGEDTWVIKPGLLVKAHKGTACIDELTVNKELQSYVLEAMESQTIHISKGGINAKLPAECAILAACNPRWGRFNPEVSVAEQINIPAPLLSRFDLIFPIRDVSDKDKDKDIAEYIVDLHRAYLDEKINREMGLDYLEVDGVKIDKEFIIKYIYYARQKKPIISEKAKELFVNYYVEMRKKHQITARQLEAAIRIAEAHAKAKLKDVVDEEDAKEAINIITECLKEIAYDPETGIFDVDKILGVSKKERDKLTTVYEIIKELSEKSELVEHEDIAEEAKKKGIKEDELENIIKKLIKYGDIDEPKPGRYRLL | failed
15 | QYRLRQLPEVSGAMVVMDPLTGRVLAMVGGFSFDQSQFNRATQAYRQPGSSFKPLVYSAAMDNGYTPSTVVIDAPIEIDQGQGVGVWRPENYSTGKYYGPTTLRNALQRSLNTVTVRLAQDIGMPLIGEYAKRFGVYDDLPNYLSYALGAGETTVMRMVTAYSMFANGGRRVKATLIDRIQDRYGHTIFKHDQRECRGCEAPNGWKNQPEPQLVDRREQVLDPMTAYQITSMMEGVVQAGTATVLREVGKPIAGKTGTTNDEKDAWFIGFSPDLVCGVYIGYDKPRNLGRGATGGHLAAPIAKDFFKLALAEKPAVPF | failed
16 | MTLSSTTAPLDQPIPQATADAFCALTGDDQWIHIDPARAEAEGLAGGDTVLPGALLLSLAVGGLGKALGYPEGTRSWQRSYERVRFLRPAPVGSRLRLEARESRRRPAGTGREVVVANVSLYSDLVEAGPVMEGCFTSLLEVAVQPDTAE | failed
17 | MSYIPPHKRHSKDPTKPTPVPDSLVTKFKKNLDFKSSTSSVKRNKIIYSGDSISKWFLVGSNGIEDDVPSYVKFVPLSSDSVECRKGEKPSILMNNNVQNVNMNIGERKDERTQWLLVAEKVMEDLVLAYERVKTEMKEHHHVSRLVARFGKIFFYGSQAGPVAECSLKNLNKMFSTDLPMSYLQHIKSNVVPSHGFSIDKEKETYTVKVSHYSRPNATINCKCTRKEDGRLSMYKASLEFYVDLNPVRHLVVDVSCIDKNLDMRLTLTAKREITYLSDKEIGDIKALLESATVDPNVKGGLRWPFGKALSEDGYKEFEVCHVRATIYKNKTLRLRVRETDRFNETTGTGETKREVSLTLKDIDTKIQEQNTERGCVLEMLRDALGTIWDFLHCDAYLT | not failed
18 | MKMMDANEIISFIQNSTKSTPVKVYVKGELEGINFGESAKAFINGNTGVVFGEWSEIQTAIEENQSKIEDYVVENDRRNSAIPMLDLKNIKARIEPGAIIRDQVEIGDNAVIMMGASINIGSVIGEGTMIDMNVVLGGRATVGKNCHIGAGSVLAGVIEPPSAKPVVIEDDVVIGANAVVLEGVTVGKGPVVAAGAIVVNDVEPYTVVAGTPAKKIKDIDEKTKGKTEIKQELRQL | not failed
19 | MSDLTFNKIAGGVLLTGLVIFGLREASSIVFSKPEVEKAGYEIAVQEESAGGAAVVESLPDWNAVLTPANVAAGQAVAAKCAACHKFDASNANGTGPGLWDVVGRKPAAHADFNYSTGMKEFAAKTPVWDYDHLYEFLKAPGKYVSGTNMTFVGLKKQEDRIAMIAYMHSLGSKLPVPPPRPVAAPAPAEGAAPAAEGAAPAAEGAAPAAAGAAPAAPAAAAPAAPKA | failed
20 | MHDALRAYIEKYASEKISDADFEEVKKAFTFKRYKKGQFLLQEGEVSKYTAFVLKGSMRQYSVDAKGTEHIIHFGIENWWVGDRESSTMLTPSNYNIDAIEDTEVLLTTSEDLQQLTAALPVIGKMVNTMNQRNFIASQKRIHDALSLTAEERYLELLKNHPDFLQRFPQTMLASYLGITAETYSRIRKKALK | not failed

Reference: a protein production outcome set (Wang et al. 2014)
